Biological target: FKBP1A (UniProt P62942)
Assay: co-precipitation from transfected Jurkat cells
Settings: reference: WT TGFβRI; sites T200

binding against the reference: stronger
Substance: TGFβRI (from UniProt P36897) T200V TGFβRI
